Test results: patent publication US20130116129, “METHOD FOR DETECTING TARGET MOLECULES” (NATIONAL INSTITUTE OF ADVANCED INDUSTRIAL SCIENCE AND …, published 2013)

B1: streptavidin aptamer (ssDNA)
DNA: TCTGTGAGACGACGCACCGGTCGCAGGTTTTGTCTCACAG
B2: control aptamer (ssDNA)
DNA: TCTGTGAGACGACGCACCGACCGCAGGTTTTGTCTCACAG

Legend:
[1] = molecular target: T1, streptavidin (UniProt P22629 P22629:25-183); assay: footprint; S1 nuclease protection; 50 mM NaCl, 20 mM MgCl2, Tris pH 7.5; ratio to control varies with streptavidin concentration; details: tags: Roche (free); Dynabeads streptavidin (Invitrogen) for bead selections; chain copies: 4
Protocol: (§1) Subsequently, 1 μl of S1 nuclease (22.5 units/μl) (Takara, Japan) was added to each tube followed by 20-minutes reaction at 37° C., and then the reaction was stopped by heating at 98° C. for 3 minutes.
(§2) PCR was performed, using a thermal circular (Biometra), after keeping the temperature at 96° C. for 1 minute, for 1 cycle of 95° C. for 15 seconds, 46° C. for 20 seconds, and 72° C. for 60 seconds, then 40 cycles each consisting of 95° C. for 15 seconds and 72° C. for 60 seconds. As a PCR reagent, KOD-Neo-plus (Toyobo Co., Ltd., Japan) was used.
(§3) After PCR, products were digested with the Msp I restriction enzyme. […] Samples after digestion were subjected to gel electrophoresis, so that the ratio of the amount of the streptavidin aptamer to the amount of the control aptamer could be determined.

[2] = molecular target: T1, streptavidin; assay: footprint; stated non-binding control in S1 nuclease protection assay; details: tags: Roche (free); Dynabeads streptavidin (Invitrogen) for bead selections; chain copies: 4
Protocol: as §1, §2, §3

T1 sequence (P22629 25-183, one chain of several): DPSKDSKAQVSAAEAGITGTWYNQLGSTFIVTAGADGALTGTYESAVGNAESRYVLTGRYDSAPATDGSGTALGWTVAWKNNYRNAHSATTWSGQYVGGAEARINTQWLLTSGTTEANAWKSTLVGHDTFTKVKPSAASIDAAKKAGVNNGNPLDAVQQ

| Binder | binding result [1] | binding result [2] |
| --- | --- | --- |
| B1 | binds | – |
| B2 | – | no binding |
